Test results from paper PMC5372681, “Study of Different Variants of Mo Enzyme crARC and the Interaction with Its Partners crCytb5-R and crCytb5-1” (International Journal of Molecular Sciences, 2017).

Biological target: T1, crARC, Chlamydomonas reinhardtii mARC (mitochondrial Amidoxime Reducing Component), wild type (Chlamydomonas reinhardtii)
T1 construct: crARC, Chlamydomonas reinhardtii mARC, GenPept XP_001694549; Carries the Mo Cofactor; The mutant cDNAs were cloned in pQE80 (N-terminal six histidines); also called wild type crARC; Mo enzyme crARC; source: E. coli TP1000 (mobA), purified (Ni-NTA, PD10 desalting)
Experiment: SEC; two proteins incubated together for 10 min, then loaded; 15 pmol of each; Superdex 200 10/300 GL, 50 mM phosphate buffer pH 7.2, 0.15 M NaCl, 0.75 mL/min; peak fractions checked by SDS-PAGE
Conditions: both partners purified

B1: crCytb5-R, Chlamydomonas reinhardtii NADH cytochrome b5 reductase (enzyme)
chain: MEEAGSEVMRSVITLLSYWQVGAGLLVVLVLIQALVFLRKKTKKPFLDPSEFQPVPLVEKTLITHNTVRLRFALPDPEQRVGLPIGQHISFKAQGEDGKDVIRPYTPVSDDDQLGAVDFVIKLYPTGKMSQVIAKMQLGDTMLMKGPKGRFTYTPNMVKHFGMLAGGTGITPMFQVLNAILKNPRDTTSVTLLYGNLTEEDILLRKELDELVAMHGNRLTVYHVLNTPPVDKEWSGGSGFISSELIRTKFPAPSSDIMTLRCGPSPMMVAMEKALTDLGYAEDKQFQF
  stoichiometry N: 1 crCytb5-R per crARC
